Measured values as given in patent publication US20230035659A1, “Compositions and Methods for TTR Gene Editing and Treating ATTR Amyloidosis Comprising a Corticosteroid or Use Thereof” (Intellia Therapeutics, Inc., priority 2019, published 2023).
Strand notation (5' to 3'): a small letter for the sugar, then the base; units joined by * are phosphorothioate-linked, units joined directly phosphodiester-linked; [ ] holds rarer units or linkages, { } end groups; capitals alone tell only the bases. m = 2'-O-methyl; r = 2'-OH (RNA)

Experiments:
TTR [1] = experiment: TTR editing in primary human hepatocytes treated with LNP formulated Spy Cas9 mRNA (SEQ ID NO: 2) and sgRNAs, 12.5 ng mRNA; format: cell-based; conditions: LNP formulated Spy Cas9 mRNA (SEQ ID NO: 2) and sgRNA, 12.5 ng mRNA, 3.9 nM sgRNA, 72 hours
Procedure: Primary liver hepatocytes. Primary human liver hepatocytes (PHH) and primary cynomolgus liver hepatocytes (PCH) (Gibco) were cultured per the manufacturer's protocol (Invitrogen, protocol 11.28.2012). In brief, the cells were thawed and resuspended in hepatocyte thawing medium with supplements (Gibco, Cat. CM7000) followed by centrifugation at 100 g for 10 minutes for human and 80 g for 4 minutes for cyno. The supernatant was discarded and the pelleted cells resuspended in hepatocyte plating medium plus supplement pack (Invitrogen, Cat. A1217601 and CM3000). Cells were counted and plated on Bio-coat collagen I coated 96-well plates (ThermoFisher, Cat. 877272) at a density of 33,000 cells/well for human or 60,000 cells/well for cyno (or 65,000 cells/well when assaying effects on TTR protein, described further below). Plated cells were allowed to settle and adhere for 6 or 24 hours in a tissue culture incubator at 37° C. and 5% CO2 atmosphere. After incubation cells were checked for monolayer formation and media was replaced with hepatocyte culture medium with serum-free supplement pack (Invitrogen, Cat. A1217601 and CM4000).
In general, the lipid nanoparticle components were dissolved in 100% ethanol with the lipid component of various molar ratios. The RNA cargos were dissolved in 25 mM citrate, 100 mM NaCl, pH 5.0, resulting in a concentration of RNA cargo of approximately 0.45 mg/mL. The LNPs were formulated with a lipid amine to RNA phosphate (N:P) molar ratio of about 4.5 or about 6, with the ratio of mRNA to gRNA at 1:1 by weight.
The LNPs were formed by microfluidic mixing of the lipid and RNA solutions using a Precision Nanosystems NanoAssemblr™ Benchtop Instrument, according to the manufacturer's protocol. A 2:1 ratio of aqueous to organic solvent was maintained during mixing using differential flow rates. After mixing, the LNPs were collected, diluted in water (approximately 1:1 v/v), held for 1 hour at room temperature, and further diluted with water (approximately 1:1 v/v) before final buffer exchange. The final buffer exchange into 50 mM Tris, 45 mM NaCl, 5% (w/v) sucrose, pH 7.5 (TSS) was completed with PD-10 desalting columns (GE). If required, formulations were concentrated by centrifugation with Amicon 100 kDa centrifugal filters (Millipore). The resulting mixture was then filtered using a 0.2 μm sterile filter. The final LNP was stored at −80° C. until further use.
Additional PCR was performed per the manufacturer's protocols (Illumina) to add chemistry for sequencing. The amplicons were sequenced on an Illumina MiSeq instrument. The reads were aligned to a reference genome (e.g., the human reference genome (hg38), the cynomologus reference genome (mf5), the rat reference genome (rn6), or the mouse reference genome (mm10)) after eliminating those having low quality scores. The resulting files containing the reads were mapped to the reference genome (BAM files), where reads that overlapped the target region of interest were selected and the number of wild type reads versus the number of reads which contain an insertion, substitution, or deletion was calculated.
The editing percentage (e.g., the “editing efficiency” or “percent editing” or “indel frequency”) is defined as the total number of sequence reads with insertions/deletions (“indels”) or substitutions over the total number of sequence reads, including wild type.
Lipid nanoparticle formulations of modified sgRNAs targeting human TTR and the cyno matched sgRNA sequences were tested on primary human hepatocytes and primary cyno hepatocytes in a dose response curve. Primary human and cyno hepatocytes were plated as described in Example 1. Both cell lines were incubated at 37° C., 5% CO2 for 24 hours prior to treatment with LNPs. The LNPs used in the experiments detailed in Tables 18-21 were prepared using the Nanoassemblr™ procedure, each containing the specified sgRNA and Cas9 mRNA (SEQ ID NO:2), each having Lipid. […]

TTR [2] = experiment: TTR editing dose response (EC50, maximum editing) in primary cyno hepatocytes treated with LNP formulated U-depleted Spy Cas9 mRNA and sgRNAs; format: cell-based, cynomolgus monkey; conditions: LNP formulated U-depleted Spy Cas9 mRNA and human specific sgRNAs
How it was run: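 Primary cyno hepatocytes, 24 h after plating, treated with LNPs (Cas9 mRNA plus sgRNA) preincubated 5 min in medium with 6% cyno serum; 8-point 3-fold doses from 300 ng mRNA. Lysed at 72 h; indel/substitution percentage by amplicon NGS, giving EC50 and maximum editing.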

Row | Molecule | 12.5 ng mRNA, 3.9 nM sgRNA, Avg % Edit (TTR [1]) [%] | Max Editing (TTR [2]) [%]
1 | G000572: TTR sgRNA modified sequence, Human, SEQ ID NO: 113; guide sequence of CR003385 (nucleic acid) guide: mC*mC*mC*rCrUrArCrUrCrCrUrArUrUrCrCrArCrCrArGrUrUrUrUrArGrAmGmCmUmAmGmAmAmAmUmAmGmCrArArGrUrUrArArArArUrArArGrGrCrUrArGrUrCrCrGrUrUrArUrCrAmAmCmUmUmGmAmAmAmAmAmGmUmGmGmCmAmCmCmGmAmGmUmCmGmGmUmGmCmU*mU*mU*mU | 55.45 | 100.31
2 | G000481: TTR sgRNA modified sequence, Human, SEQ ID NO: 88; guide sequence of CR003345 (nucleic acid, sugars from the 5' end m3 r25 m12 r28 m32, backbone not given here; further chemistry not fully specified) guide: UCUAGAACUUUGACCAUCAGGUUUUAGAGCUAGAAAUAGCAAGUUAAAAUAAGGCUAGUCCGUUAUCAACUUGAAAAAGUGGCACCGAGUCGGUGCUUUU | 24.37 | 95.07
3 | G000567: TTR sgRNA modified sequence, Human, SEQ ID NO: 109; guide sequence of CR003352 (nucleic acid) guide: mG*mA*mA*rArGrGrCrUrGrCrUrGrArUrGrArCrArCrCrGrUrUrUrUrArGrAmGmCmUmAmGmAmAmAmUmAmGmCrArArGrUrUrArArArArUrArArGrGrCrUrArGrUrCrCrGrUrUrArUrCrAmAmCmUmUmGmAmAmAmAmAmGmUmGmGmCmAmCmCmGmAmGmUmCmGmGmUmGmCmU*mU*mU*mU | 48.95 | 97.06
4 | G000568: TTR sgRNA modified sequence, Human, SEQ ID NO: 110; guide sequence of CR003391 (nucleic acid) guide: mG*mG*mC*rUrGrUrCrGrUrCrArCrCrArArUrCrCrCrArGrUrUrUrUrArGrAmGmCmUmAmGmAmAmAmUmAmGmCrArArGrUrUrArArArArUrArArGrGrCrUrArGrUrCrCrGrUrUrArUrCrAmAmCmUmUmGmAmAmAmAmAmGmUmGmGmCmAmCmCmGmAmGmUmCmGmGmUmGmCmU*mU*mU*mU | 54.60 | 87.93
5 | G000500: TTR sgRNA modified sequence, Human, SEQ ID NO: 107; guide sequence of CR003337 (nucleic acid) guide: mC*mC*mA*rGrUrCrCrArGrCrArArGrGrCrArGrArGrGrGrUrUrUrUrArGrAmGmCmUmAmGmAmAmAmUmAmGmCrArArGrUrUrArArArArUrArArGrGrCrUrArGrUrCrCrGrUrUrArUrCrAmAmCmUmUmGmAmAmAmAmAmGmUmGmGmCmAmCmCmGmAmGmUmCmGmGmUmGmCmU*mU*mU*mU | 23.57 | 58.04
